Assay [1] concerns the target T1, recombinant human PD-1 Fc chimera (human, UniProt Q15116 25-167).
T1 construct: Bought protein (R&D 1086-PD in the HTRF assay); also called human PD-1-hu Fc; huPD-1Fc; not shown: human Fc
Kind of assay: SPR Biacore T200, single cycle kinetics, human PD-1-hu Fc amine coupled to CM5, 1:1 model. How it is done: Binding kinetics of certain humabodies binding to human PD-1-hu Fc were measured by surface plasmon resonance (SPR) technology using Biacore T200 instrument (GE Healthcare). Recombinant human PD-1-hu Fc was immobilized by standard amine coupling to CM5 sensors chip (GE Healthcare) using 0.1 mg/ml solution of antigen in 10 mM sodium acetate at pH 5.5. For the reference flow cell, a blank immobilisation was carried out. Single cycle kinetics assays were used to study the interaction, a five point, three-fold dilution series of each Humabody® VH was made with a top concentration of 30 nM. The binding kinetics were followed by flowing the Humabody® VH over the chip surface in HBS EP+ buffer at a flow rate of 30 μl/min. The contact time for each of the association steps was 180 seconds and the dissociation step was varied between 1200-3600 seconds. The data was fitted to a 1:1 binding model after double reference subtraction using the Biacore T200 Evaluation software.

Assay [2] deals with T2, human PD-1 expressed on cells (CHO TREX human PD1 cell line, full-length human PD-1 sequence) (human, UniProt Q15116 21-288).
T2 construct: Also used for human PD-1 on Jurkat reporter cells, on PathHunter cells and on PHA-stimulated human CD4+ T cells; also called CHO human PD1 cells; CHO human PD-1 cells
T2 sequence (Q15116 21-288): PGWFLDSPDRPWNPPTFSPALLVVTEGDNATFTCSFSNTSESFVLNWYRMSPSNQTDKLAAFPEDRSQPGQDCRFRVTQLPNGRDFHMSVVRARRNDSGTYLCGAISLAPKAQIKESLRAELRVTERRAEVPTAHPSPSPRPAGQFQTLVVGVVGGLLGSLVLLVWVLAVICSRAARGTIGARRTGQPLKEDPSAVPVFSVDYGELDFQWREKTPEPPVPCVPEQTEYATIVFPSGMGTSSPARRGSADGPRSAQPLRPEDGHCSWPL
Kind of assay: epitope competition assay on CHO human PD1 cells (labelled VH 1.51a, 1.57b or 1.1a, not specified) after 0 days in human serum.

Assay [3] addresses T2, human PD-1 expressed on cells (CHO TREX …). The assay is described as follows: epitope competition assay on CHO human PD1 cells (labelled VH not specified) after 0 days in human serum.

T1 sequence (Q15116 25-167 limits assumed, change not shown): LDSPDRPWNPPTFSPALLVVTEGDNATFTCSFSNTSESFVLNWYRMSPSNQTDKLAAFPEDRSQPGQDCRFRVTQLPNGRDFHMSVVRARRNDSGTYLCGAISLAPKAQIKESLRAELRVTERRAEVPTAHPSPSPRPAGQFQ

B1: 1.92b-4GS-1.39a (other)
chain: EVQLVESGGGLVKPGGSLRLSCAASGFTFSDESMTWMRQAPGKGLEWVSYISSGGGVKFYADSVKGRFTISRDNAKNSLYLQMNSLRAEDTAVYYCAREAPLRLGESPHDAFDISGQGTMVTVSSGGGGSGGGGSGGGGSGGGGSEVQLVESGGGLVQPGRSLRLSCAASGFTFDDYALHWVRQAPGKDLEWVSGISWNGGSYGYADSVKGRFTISRDNAKNSLYLQMNSLRAEDTALYYCVREKGPGLTGSTADYYGLDAWGQGTMVTVSS
notes: Biparatopic VH-linker-VH; built from its parts here because it is not clear whether 1112 is the protein or the nucleic acid
One may read the Kd as the equilibrium constant for the complex coming apart. A word on the koff: it is a measure of how fast the partners let go of each other. One may read the kon as the rate constant with which the complex forms. For orientation: IC50 means the concentration that gives 50% inhibition. In the case of B1, in assay [1], the Kd was determined as 0.012 nM, the koff came out at 6.5e-06 s⁻¹ and the kon came to 510000 M⁻¹ s⁻¹. Moreover, the IC50 in assay [2] was 0.9 nM.

B2: 1.92b-4GS-1.62a (other)
chain: EVQLVESGGGLVKPGGSLRLSCAASGFTFSDESMTWMRQAPGKGLEWVSYISSGGGVKFYADSVKGRFTISRDNAKNSLYLQMNSLRAEDTAVYYCAREAPLRLGESPHDAFDISGQGTMVTVSSGGGGSGGGGSGGGGSGGGGSEVQLVESGGGVVRPGGSLRLSCAASGFTFDDYAMSWVRQAPGKGLEWVSGITWNAGSTGYADSVKGRFTISRDNAKNSLYLQMNSLRAEDTALYYCVRDKYSYAWSYDDFDIWGQGTMVTVSS
notes: Biparatopic VH-linker-VH; also called 1.92-4GS-1.62a; 1.92b-4gs-2.12a
With B2, in assay [1], the Kd is 0.0097 nM, the dissociation rate constant (koff) is 4.3e-06 s⁻¹ and the kon was determined as 440000 M⁻¹ s⁻¹. The molecule further returned an IC50 in assay [3] of 1.4 nM.

Source of the values: patent US20220306744A1 (CRESCENDO BIOLOGICS, published 2022).
